Measured values taken from the supplement of paper PMC5998384.

How the values were obtained:
[1] = tested on: HeLa Kyoto; assay: solubility in G1/S (NP-40 vs SDS abundance) (log2 ratio); higher = more soluble; details: cell cycle stage: G1/S
[2] = tested on: HeLa Kyoto; assay: solubility change mitosis vs G1/S (difference of NP-40 vs SDS log2 ratios) (log2 ratio difference); higher = more soluble in mitosis
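Wherever solubility change mitosis vs G1/S (difference of NP-40 vs SDS log2 ratios) is given: synchronized HeLa Kyoto cells (double thymidine block for G1/S, nocodazole release for mitosis), protein amounts in NP-40 versus SDS lysates quantified by mass spectrometry, three biological replicates.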
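Wherever solubility in G1/S (NP-40 vs SDS abundance) is given: HeLa Kyoto cells arrested at G1/S by double thymidine block, proteins quantified by TMT10plex mass spectrometry in mild NP-40 versus SDS extracts, three biological replicates.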

PEX16, sequence (chain, as listed by the source): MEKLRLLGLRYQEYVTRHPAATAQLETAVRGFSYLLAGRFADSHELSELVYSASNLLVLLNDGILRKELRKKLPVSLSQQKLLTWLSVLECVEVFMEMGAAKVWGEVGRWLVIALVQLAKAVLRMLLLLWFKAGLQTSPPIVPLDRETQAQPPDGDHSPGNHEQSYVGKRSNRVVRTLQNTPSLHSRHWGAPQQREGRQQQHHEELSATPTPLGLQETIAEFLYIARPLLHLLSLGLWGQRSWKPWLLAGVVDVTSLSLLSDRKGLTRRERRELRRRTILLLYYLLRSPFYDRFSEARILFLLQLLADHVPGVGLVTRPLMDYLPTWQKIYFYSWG

Substance | solubility in G1/S (log2) [1] | solubility change mitosis (log2) [2]
MSMTLGYWDIRGLAHAIRLLLEYTDSSYEEKKYTMGDAPDYDRSQWLNEKFKLGLDFPNLPYLIDGAHKITQSNAILCYIARKHNLCGETEEEKIRVDILENQAMDVSNQLARVCYSPDFEKLKPEYLEELPTMMQHFSQFLGKRPWFVGDKITFVDFLAYDVLDLHRIFEPNCLDAFPNLKDFISRFEGLEKISAYMKSSRFLPKPLYTRVAVWGNK [GSTM4] | -0.0869 | -0.101
MGRKKIQIQRITDERNRQVTFTKRKFGLMKKAYELSVLCDCEIALIIFNHSNKLFQYASTDMDKVLLKYTEYNEPHESRTNADIIETLRKKGFNGCDSPEPDGEDSLEQSPLLEDKYRRASEELDGLFRRYGSTVPAPNFAMPVTVPVSNQSSLQFSNPSGSLVTPSLVTSSLTDPRLLSPQQPALQRNSVSPGLPQRPASAGAMLGGDLNSANGACPSPVGNGYVSARASPGLLPVANGNSLNKVIPAKSPPPPTHSTQLGAPSRKPDLRVITSQAGKGLMHHLTEDHLDLNNAQRLGVSQSTHSLTTPVVSVATPSLLSQGLPFSSMPTAYNTDYQLTSAELSSLPAFSSPGGLSLGNVTAWQQPQQPQQPQQPQPPQQQPPQPQQPQPQQPQQPQQPPQQQSHLVPVSLSNLIPGSPLPHVGAALTVTTHPHISIKSEPVSPSRERSPAPPPPAVFPAARPEPGDGLSSPAGGSYETGDRDDGRGDFGPTLGLLRPAPEPEAEGSAVKRMRLDTWTLK [MEF2D] | 0.219 | 0.0539
METDESPSPLPCGPAGEAVMESRARPFQALPREQSPPPPLQTSSGAEVMDVGSGGDGQSELPAEDPFNFYGASLLSKGSFSKGRLLIDPNCSGHSPRTARHAPAVRKFSPDLKLLKDVKISVSFTESCRSKDRKVLYTGAERDVRAECGLLLSPVSGDVHACPFGGSVGDGVGIGGESADKKDEENELDQEKRVEYAVLDELEDFTDNLELDEEGAGGFTAKAIVQRDRVDEEALNFPYEDDFDNDVDALLEEGLCAPKKRRTEEKYGGDSDHPSDGETSVQPMMTKIKTVLKSRGRPPTEPLPDGWIMTFHNSGVPVYLHRESRVVTWSRPYFLGTGSIRKHDPPLSSIPCLHYKKMKDNEEREQSSDLTPSGDVSPVKPLSRSAELEFPLDEPDSMGADPGPPDEKDPLGAEAAPGALGQVKAKVEVCKDESVDLEEFRSYLEKRFDFEQVTVKKFRTWAERRQFNREMKRKQAESERPILPANQKLITLSVQDAPTKKEFVINPNGKSEVCILHEYMQRVLKVRPVYNFFECENPSEPFGASVTIDGVTYGSGTASSKKLAKNKAARATLEILIPDFVKQTSEEKPKDSEELEYFNHISIEDSRVYELTSKAGLLSPYQILHECLKRNHGMGDTSIKFEVVPGKNQKSEYVMACGKHTVRGWCKNKRVGKQLASQKILQLLHPHVKNWGSLLRMYGRESSKMVKQETSDKSVIELQQYAKKNKPNLHILSKLQEEMKRLAEEREETRKKPKMSIVASAQPGGEPLCTVDV [DGCR8] | -0.452 | 0.0203
MGTIHLFRKPQRSFFGKLLREFRLVAADRRSWKILLFGVINLICTGFLLMWCSSTNSIALTAYTYLTIFDLFSLMTCLISYWVTLRKPSPVYSFGFERLEVLAVFASTVLAQLGALFILKESAERFLEQPEIHTGRLLVGTFVALCFNLFTMLSIRNKPFAYVSEAASTSWLQEHVADLSRSLCGIIPGLSSIFLPRMNPFVLIDLAGAFALCITYMLIEINNYFAVDTASAIAIALMTFGTMYPMSVYSGKVLLQTTPPHVIGQLDKLIREVSTLDGVLEVRNEHFWTLGFGSLAGSVHVRIRRDANEQMVLAHVTNRLYTLVSTLTVQIFKDDWIRPALLSGPVAANVLNFSDHHVIPMPLLKGTDDLNPVTSTPAKPSSPPPEFSFNTPGKNVNPVILLNTQTRPYGFGLNHGHTPYSSMLNQGLGVPGIGATQGLRTGFTNIPSRYGTNNRIGQPRP [SLC30A6] | -0.097 | -0.0121
MDRRKKPLDVTASSLVDLKAELFRKQEEFKQEKLLKDSGVFGKPKTTNKKPSIWSKQNVGVSNRAEKDAEQKIEEQKTLDKAREKLEEKAKLYEKMTKGDFIDEEVEDMYLVDFTQKIIDKRKEMEASGAHRDSQKAGERDDDEENLPEGEIPPPQDPSEEWVDYVDSLGRSRRCMRKDLPDLLEMDKNLQGRLFISPANEKTLLSEDMRKELQRQQWEEEEREALKRPMGPVHYEDIRENEARQLGVGYFAFARDKELRNKQMKTLEMLREQTTDQRTKRENIKEKRKAILEARLAKLRQKKMKKSKEGGTEEENRDGDVIGPLPPEPEAVPTPRPAAQSSKVEVIVQERKDTKPGVPHIREWDRGKEFSFGYWSKRQSDLRAERDPEFAPPSDYFVGQKRTGFSSSQAWSRPGPAQSDPGQCPDQSHGPSPEHTSPTPAPDNPPQAPTVTFKTLDDMISYYKQVT [CCDC174] | 0.12 | 0.139
MATAPGPAGIAMGSVGSLLERQDFSPEELRAALAGSRGSRQPDGLLRKGLGQREFLSYLHLPKKDSKSTKNTKRAPRNEPADYATLYYREHSRAGDFSKTSLPERGRFDKCRIRPSVFKPTAGNGKGFLSMQSLASHKGQKLWRSNGSLHTLACHPPLSPGPRASQARAQLLHALSLDEGGPEPEPSLSDSSSGGSFGRSPGTGPSPFSSSLGHLNHLGGSLDRASQGPKEAGPPAVLSCLPEPPPPYEFSCSSAEEMGAVLPETCEELKRGLGDEDGSNPFTQVLEERQRLWLAELKRLYVERLHEVTQKAERSERNLQLQLFMAQQEQRRLRKELRAQQGLAPEPRAPGTLPEADPSARPEEEARWEVCQKTAEISLLKQQLREAQAELAQKLAEIFSLKTQLRGSRAQAQAQDAELVRLREAVRSLQEQAPREEAPGSCETDDCKSRGLLGEAGGSEARDSAEQLRAELLQERLRGQEQALRFEQERRTWQEEKERVLRYQREIQGGYMDMYRRNQALEQELRALREPPTPWSPRLESSKI [N4BP3] | 0.203 | 0.334
PEX16 | -0.248 | -0.0414
MSNNLRRVFLKPAEENSGNASRCVSGCMYQVVQTIGSDGKNLLQLLPIPKSSGNLIPLVQSSVMSDALKGNTGKPVQVTFQTQISSSSTSASVQLPIFQPASSSNYFLTRTVDTSEKGRVTSVGTGNFSSSVSKVQSHGVKIDGLTMQTFAVPPSTQKDSSFIVVNTQSLPVTVKSPVLPSGHHLQIPAHAEVKSVPASSLPPSVQQKILATATTSTSGMVEASQMPTVIYVSPVNTVKNVVTKNFQNIYPKPVTEIAKPVILNTTQIPKNVATETQLKGGQHSQAAPVKWIFQDNLQPFTPSLVPVKSSNNVASKILKTFVDRKNLGDNTINMPPLSTIDPSGTRSKNMPIKDNALVMFNGKVYLLAKKGTDVLPSQIDQQNSVSPDTPVRKDTLQTVSSSPVTEISREVVNIVLAKSKSSQMETKSLSNTQLASMANLRAEKNKVEKPSPSTTNPHMNQSSNYLKQSKTLFTNPIFPVGFSTGHNAPRKVTAVIYARKGSVLQSIEKISSSVDATTVTSQQCVFRDQEPKIHNEMASTSDKGAQGRNDKKDSQGRSNKALHLKSDAEFKKIFGLTKDLRVCLTRIPDHLTSGEGFDSFSSLVKSGTYKETEFMVKEGERKQQNFDKKRKAKTNKKMDHIKKRKTENAYNAIINGEANVTGSQLLSSILPTSDVSQHNILTSHSKTRQEKRTEMEYYTHEKQEKGTLNSNAAYEQSHFFNKNYTEDIFPVTPPELEETIRDEKIRRLKQVLREKEAALEEMRKKMHQK [LRIF1] | -0.92 | 0.89
MGKSCKVVVCGQASVGKTSILEQLLYGNHVVGSEMIETQEDIYVGSIETDRGVREQVRFYDTRGLRDGAELPRHCFSCTDGYVLVYSTDSRESFQRVELLKKEIDKSKDKKEVTIVVLGNKCDLQEQRRVDPDVAQHWAKSEKVKLWEVSVADRRSLLEPFVYLASKMTQPQSKSAFPLSRKNKGSGSLDG [NKIRAS2] | -0.133 | -0.0114
ALG12 | -0.268 | -0.0892
